Changes are numbered by the printed parent chain. Names may count otherwise. One block for each binder: values may come before it.
Key:
Biotin-FcγRIIB [1] = molecular target: T1, Biotin-FcγRIIB (human, UniProt P31994 43-217, limits assumed, biotin-labelled); assay: FACS sorting of displayed Fc library on biotin-FcγRIIB, NGS
T1 construct: Bought, biotin-labelled; used at 1 µg/ml for staining and sorting; also called human FcγRIIB; CD32b
T1 sequence (looked up): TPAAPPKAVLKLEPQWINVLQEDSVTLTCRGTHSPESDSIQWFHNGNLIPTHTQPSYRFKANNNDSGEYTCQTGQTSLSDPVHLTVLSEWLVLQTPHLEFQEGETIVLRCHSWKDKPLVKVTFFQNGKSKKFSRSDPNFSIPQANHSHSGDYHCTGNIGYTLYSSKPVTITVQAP

Biotin-FcγRIIB [2] = molecular target: T1, Biotin-FcγRIIB; assay: FACS sorting of displayed Fc library on biotin-FcγRIIB, NGS; reference G327A
Biotin-FcγRIIB [3] = molecular target: T2, Biotin-FcγRIIB (human, UniProt P31994 43-217, limits assumed, biotin label); assay: NGS of 3T3 display library IgG2_C02 flow-sorted for FcγRIIB binding
T2 construct: Soluble labelled protein used to stain and sort the display cells; also called human FcγRIIB; CD32b
T2 sequence (looked up): T1 sequence (looked up)
Excerpt: Then flow cytometry is used for sorting the cells with high affinity to FcγRIIB for two to three rounds. […] IgG2_C01 is a combined mutation (Type I) library having at most 1 mutation in each of the four regions of P233-V240, V266-P271, S298-T299, and G327-I332; IgG2_C02 is a cell library made by combining the combined mutation (Type II) libraries of four regions of P233-V240, V266-P271, S298-T299 and G327-I332 together and transferring it into 3T3 cells.

Biotin-FcγRIIB [4] = molecular target: T1, Biotin-FcγRIIB; assay: FACS sorting of displayed Fc library on biotin-FcγRIIB, NGS; reference P271C
Biotin-FcγRIIB [5] = molecular target: T1, Biotin-FcγRIIB; assay: FACS sorting of displayed Fc library on biotin-FcγRIIB, NGS; reference S267E
FcγRIIA^131R (human) = FcγRIIA^131R (human) (UniProt P12318); assay: ELISA, coated antibody, biotin-FcγR;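 for Absorbance value: antibody coated at 2 µg/mL at 100 µL per well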
FcγRIIB [6] = molecular target: T3, FcγRIIB (human, UniProt P31994 43-217, biotin-labeled); assay: ELISA; relative affinity to FcγRIIB over that to FcγRIIA131R
T3 construct: extracellular domain; Bought protein; also called CD32b
T3 sequence (looked up): T1 sequence (looked up)

FcγRIIA^131H = molecular target: T4, FcγRIIA^131H (human, UniProt P12318 34-217, biotin-labeled); assay: ELISA, coated antibody, biotin-FcγR;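 for Absorbance value: antibody coated at 2 µg/mL at 100 µL per well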
T4 construct: extracellular domain; Bought protein; also called RIIAH
T4 sequence (looked up): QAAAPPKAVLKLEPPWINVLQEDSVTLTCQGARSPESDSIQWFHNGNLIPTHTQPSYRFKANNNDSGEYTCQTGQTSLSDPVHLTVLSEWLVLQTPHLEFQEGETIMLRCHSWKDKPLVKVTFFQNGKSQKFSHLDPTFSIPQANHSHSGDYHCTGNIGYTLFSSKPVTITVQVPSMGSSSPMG

FcγRIIIA^158F = molecular target: T5, FcγRIIIA^158F (human, UniProt P08637 17-208, biotin-labeled); assay: ELISA, coated antibody, biotin-FcγR;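 for Absorbance value: antibody coated at 2 µg/mL at 100 µL per well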
T5 construct: extracellular domain; Bought protein; also called RIIIAF
T5 sequence (P08637 17-208): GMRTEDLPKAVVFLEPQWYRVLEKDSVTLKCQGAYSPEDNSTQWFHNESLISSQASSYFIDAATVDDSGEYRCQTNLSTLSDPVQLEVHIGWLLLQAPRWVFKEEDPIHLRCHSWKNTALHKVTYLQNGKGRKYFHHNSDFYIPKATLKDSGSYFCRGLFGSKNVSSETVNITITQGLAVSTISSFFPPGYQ

FcγRI = molecular target: T6, FcγRI (human, UniProt P12314 16-292, biotin-labeled); assay: ELISA, coated antibody, biotin-FcγR;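 for Absorbance value: antibody coated at 2 µg/mL at 100 µL per well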
T6 construct: extracellular domain; Bought protein; also called CD64
T6 sequence (P12314 16-292): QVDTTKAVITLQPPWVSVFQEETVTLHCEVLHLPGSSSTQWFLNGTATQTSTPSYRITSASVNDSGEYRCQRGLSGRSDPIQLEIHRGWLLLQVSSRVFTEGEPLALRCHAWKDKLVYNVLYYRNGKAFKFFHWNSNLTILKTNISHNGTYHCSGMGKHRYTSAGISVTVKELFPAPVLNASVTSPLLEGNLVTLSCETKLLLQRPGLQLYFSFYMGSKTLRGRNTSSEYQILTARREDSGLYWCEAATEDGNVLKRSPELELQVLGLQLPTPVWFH

FcγRIIB [7] = molecular target: T3, FcγRIIB; assay: ELISA, coated antibody, biotin-FcγR;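 for Absorbance value: antibody coated at 2 µg/mL at 100 µL per well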
FcγRIIIA^158V = molecular target: T7, FcγRIIIA^158V (human, UniProt P08637 17-208, biotin-labeled); assay: ELISA, coated antibody, biotin-FcγR;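 for Absorbance value: antibody coated at 2 µg/mL at 100 µL per well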
T7 construct: extracellular domain; Bought protein; also called RIIIAV; CD16a 158V
T7 sequence (P08637 17-208 F176V): as the sequence (P08637 17-208) above, with F160V counted along it

B1: human IgG2 anti-mouse CD40 surface displayed antibody, Fc mutant G327A/A330R (antibody, name in EU numbering)
light chain (with the P2A rest): DTVLTQSPALAVSPGERVTISCRASDSVSTLMHWYQQKPGQQPKLLIYLASHLESGVPARFSGSGSGTDFTLTIDPVEADDTATYYCQQSWNDPWTFGGGTKLELKRTVAAPSVFIFPPSDEQLKSGTASVVCLLNNFYPREAKVQWKVDNALQSGNSQESVTEQDSKDSTYSLSSTLTLSKADYEKHKVYACEVTHQGLSSPVTKSFNRGECGSGATNFSLLKQAGDVEENPG
heavy chain: EVQLVESDGGLVQPGRSLKLPCAASGFTFSDYYMAWVRQAPTKGLEWVASISYDGSSTYYRDSVKGRFTISRDNAKSTLYLQMDSLRSEDTATYYCGRHSSYFDYWGQGVMVTVSSASTKGPSVFPLAPCSRSTSESTAALGCLVKDYFPEPVTVSWNSGALTSGVHTFPAVLQSSGLYSLSSVVTVPSSNFGTQTYTCNVDHKPSNTKVDKTVERKCCVECPPCPAPPVAGPSVFLFPPKPKDTLMISRTPEVTCVVVDVSHEDPEVQFNWYVDGVEVHNAKTKPREEQFNSTFRVVSVLTVVHQDWLNGKEYKCKVSNKALPRPIEKTISKTKGQPREPQVYTLPPSREEMTKNQVSLTCLVKGFYPSDIAVEWESNGQPENNYKTTPPMLDSDGSFFLYSKLTVDKSRWQQGNVFSCSVMHEALHNHYTQKSLSLSPGKLEPPPSTVSNMATVAVLVVLGAAIVTGAVVAFVMKMRRRNTGGKGGDYALAPGSQTSDLSLPDCKVMVHDPHSLA
notes: as m1; positions are Eu numbers; copies: 2 + 2
Enrichment factor (after/before sorting) (Biotin-FcγRIIB [1]): 98.3 | Increased factor a (enrichment factor/wild-type enrichment factor) (Biotin-FcγRIIB [1]): 65.8 | Increased factor 2 c Site 1 (combined/point mutation) (Biotin-FcγRIIB [2]): 19.5

B4: human IgG2 anti-mouse CD40 surface displayed antibody, Fc mutant G327A/I332E (antibody, name in EU numbering)
light chain (with the P2A rest): B1 light chain (with the P2A rest)
heavy chain: B1 heavy chain with R325A, I327E
notes: as for B1
Enrichment factor (after/before sorting) (Biotin-FcγRIIB [1]): 126 | Increased factor a (enrichment factor/wild-type enrichment factor) (Biotin-FcγRIIB [1]): 84.1 | Increased factor 2 c Site 1 (combined/point mutation) (Biotin-FcγRIIB [2]): 24.9

B6: human IgG2 anti-mouse CD40 surface displayed antibody, Fc mutant G327A/I332C (antibody, name in EU numbering)
light chain (with the P2A rest): B1 light chain (with the P2A rest)
heavy chain: B1 heavy chain with R325A, I327C
notes: as for B1
Enrichment factor (after/before sorting) (Biotin-FcγRIIB [1]): 11.4 | Increased factor a (enrichment factor/wild-type enrichment factor) (Biotin-FcγRIIB [1]): 7.64 | Increased factor 2 c Site 1 (combined/point mutation) (Biotin-FcγRIIB [2]): 2.3

B9: human IgG2 anti-mouse CD40 surface displayed antibody, Fc mutant G327A/I332A (antibody, name in EU numbering)
light chain (with the P2A rest): B1 light chain (with the P2A rest)
heavy chain: B1 heavy chain with R325A, I327A
notes: as for B1
Enrichment factor (after/before sorting) (Biotin-FcγRIIB [1]): 29.2 | Increased factor a (enrichment factor/wild-type enrichment factor) (Biotin-FcγRIIB [1]): 19.5 | Increased factor 2 c Site 1 (combined/point mutation) (Biotin-FcγRIIB [2]): 5.8

B10: human IgG2 anti-mouse CD40 surface displayed antibody, Fc mutant G327A/A330V (antibody, name in EU numbering)
light chain (with the P2A rest): B1 light chain (with the P2A rest)
heavy chain: B1 heavy chain with R325V
notes: as for B1
Enrichment factor (after/before sorting) (Biotin-FcγRIIB [1]): 6.98 | Increased factor a (enrichment factor/wild-type enrichment factor) (Biotin-FcγRIIB [1]): 4.67 | Increased factor 2 c Site 1 (combined/point mutation) (Biotin-FcγRIIB [2]): 1.4

B11: wild-type IgG2 anti-human OX40 antibody (antibody)
heavy: QVQLQESGPGLVKPSGTLSLTCAVSGGSISSSIWWSWVRQPPGKGLEWIGEIHHSGNTNCNPSLKSRVTISIDKSKNQFSLKLTSVTAADTAVYYCARAGTGTTLDYWGQGTLVTVSSASTKGPSVFPLAPCSRSTSESTAALGCLVKDYFPEPVTVSWNSGALTSGVHTFPAVLQSSGLYSLSSVVTVPSSNFGTQTYTCNVDHKPSNTKVDKTVERKCCVECPPCPAPPVAGPSVFLFPPKPKDTLMISRTPEVTCVVVDVSHEDPEVQFNWYVDGVEVHNAKTKPREEQFNSTFRVVSVLTVVHQDWLNGKEYKCKVSNKGLPAPIEKTISKTKGQPREPQVYTLPPSREEMTKNQVSLTCLVKGFYPSDIAVEWESNGQPENNYKTTPPMLDSDGSFFLYSKLTVDKSRWQQGNVFSCSVMHEALHNHYTQKSLSLSPGK
light: EIVLTQSPGTLSLSPGERATLSCRASQSVSGDYLAWYQQKLGQAPRLLIYGASIRATGIPDRFSGSGSGTDFTLTISKLEPEDFAVYYCQQYGSSPLTFGGGTKVEIKRTVAAPSVFIFPPSDEQLKSGTASVVCLLNNFYPREAKVQWKVDNALQSGNSQESVTEQDSKDSTYSLSSTLTLSKADYEKHKVYACEVTHQGLSSPVTKSFNRGEC
notes: also called WTIgG2
Absorbance value (FcγRIIA^131R (human)): 0.08 A650 | Relative binding affinity RIIAR/G1 (FcγRIIA^131R (human)): 0.29 | RIIB/RIIAR (FcγRIIB [6]): 0.34 ratio | Absorbance value (FcγRIIA^131H): 0.49 A650 | Relative binding affinity RIIAH/G1 (FcγRIIA^131H): 0.85 ratio | Absorbance value (FcγRIIIA^158F): 0.06 A650 | Relative binding affinity RIIIAF/G1 (FcγRIIIA^158F): 0.3 ratio | Absorbance value (FcγRI): 0.08 A650 | Relative binding affinity RI/G1 (FcγRI): 0.03 ratio | Absorbance value (FcγRIIB [7]): 0.08 A650 | Increased factor of RIIB binding compared with wild-type IgG2 (FcγRIIB [7]): 1 fold | Relative binding affinity RIIB/G1 (FcγRIIB [7]): 0.1 ratio | Absorbance value (FcγRIIIA^158V): 0.05 A650 | Relative binding affinity RIIIAV/G1 (FcγRIIIA^158V): 0.06 ratio

B12: anti-human OX40 IgG2 antibody Mut_26 (V234Q/A235G/P238L/S239V/S267E/H268S/E269D) (antibody)
heavy: B11 heavy with V232Q, A233G, P235L, S236V, S264E, H265S, E266D
light: B11 light
notes: Substitutions in Eu numbering; entries include an unstated signal peptide
Absorbance value (FcγRIIA^131R (human)): 0.08 A650 | Relative binding affinity RIIAR/G1 (FcγRIIA^131R (human)): 0.32 | RIIB/RIIAR (FcγRIIB [6]): 2.24 ratio | Absorbance value (FcγRIIA^131H): 0.06 A650 | Relative binding affinity RIIAH/G1 (FcγRIIA^131H): 0.11 ratio | Absorbance value (FcγRIIIA^158F): 0.08 A650 | Relative binding affinity RIIIAF/G1 (FcγRIIIA^158F): 0.41 ratio | Absorbance value (FcγRI): 0.19 A650 | Relative binding affinity RI/G1 (FcγRI): 0.07 ratio | Absorbance value (FcγRIIB [7]): 0.55 A650 | Increased factor of RIIB binding compared with wild-type IgG2 (FcγRIIB [7]): 7.28 fold | Relative binding affinity RIIB/G1 (FcγRIIB [7]): 0.72 ratio | Absorbance value (FcγRIIIA^158V): 0.09 A650 | Relative binding affinity RIIIAV/G1 (FcγRIIIA^158V): 0.09 ratio

Results, then the binder that gave them:

enrichment factor, percentage after 1st sorting/percentage before sorting (Biotin-FcγRIIB [3]): 80.5 ratio | enrichment factor, percentage after 2nd sorting/percentage after 1st sorting (Biotin-FcγRIIB [3]): 83.7 ratio | enrichment factor, percentage after 2nd sorting/percentage before sorting (Biotin-FcγRIIB [3]): 6730 ratio | increased factor, mutant enrichment factor/wild-type enrichment factor (Biotin-FcγRIIB [3]): 7970 ratio
B2: human IgG2 anti-mouse CD40 surface displayed antibody, S267E/H268S/E269D (antibody, name in EU numbering)
light chain (with the P2A rest): B1 light chain (with the P2A rest)
heavy chain: B1 heavy chain with S262E, H263S, E264D, A322G, R325A
notes: As m1 with the Fc mutations

Enrichment factor (after/before sorting) (Biotin-FcγRIIB [1]): 32.1 | Increased factor a (enrichment factor/wild-type enrichment factor) (Biotin-FcγRIIB [1]): 56 | Increased factor 2 c Site 2 (combined/point mutation) (Biotin-FcγRIIB [4]): 1.9
B3: human IgG2 anti-mouse CD40 surface displayed antibody, Fc mutant S267M/P271C (antibody, name in EU numbering)
light chain (with the P2A rest): B1 light chain (with the P2A rest)
heavy chain: B1 heavy chain with S262M, P266C, A322G, R325A
notes: as for B1

Enrichment factor (after/before sorting) (Biotin-FcγRIIB [1]): 37.4 | Increased factor a (enrichment factor/wild-type enrichment factor) (Biotin-FcγRIIB [1]): 65.1 | Increased factor 2 c Site 2 (combined/point mutation) (Biotin-FcγRIIB [4]): 2.2
B5: human IgG2 anti-mouse CD40 surface displayed antibody, Fc mutant S267A/P271C (antibody, name in EU numbering)
light chain (with the P2A rest): B1 light chain (with the P2A rest)
heavy chain: B1 heavy chain with S262A, P266C, A322G, R325A
notes: as for B1

Enrichment factor (after/before sorting) (Biotin-FcγRIIB [1]): 42.2 | Increased factor a (enrichment factor/wild-type enrichment factor) (Biotin-FcγRIIB [1]): 73.5 | Increased factor 2 c Site 2 (combined/point mutation) (Biotin-FcγRIIB [4]): 2.5
B7: human IgG2 anti-mouse CD40 surface displayed antibody, Fc mutant V266A/P271C (antibody, name in EU numbering)
light chain (with the P2A rest): B1 light chain (with the P2A rest)
heavy chain: B1 heavy chain with V261A, P266C, A322G, R325A
notes: as for B1

Enrichment factor (after/before sorting) (Biotin-FcγRIIB [1]): 1000 | Increased factor a (enrichment factor/wild-type enrichment factor) (Biotin-FcγRIIB [1]): 1740 | Increased factor 2 c Site 1 (combined/point mutation) (Biotin-FcγRIIB [5]): 61.2 | Increased factor 2 c Site 2 (combined/point mutation) (Biotin-FcγRIIB [4]): 58.4
B8: human IgG2 anti-mouse CD40 surface displayed antibody, Fc mutant S267E/P271C (antibody, name in EU numbering)
light chain (with the P2A rest): B1 light chain (with the P2A rest)
heavy chain: B1 heavy chain with S262E, P266C, A322G, R325A
notes: as for B1
